Experimental data reported in patent US20250073334A1 (University of California, published 2025).

Tests used:
[1] = target: SpyCatcher-H5 hemagglutinin construct (avian influenza A); assay: SpyTag/SpyCatcher reaction, SDS-PAGE
[2] = target: SpyCatcher-CBU1910 fusion protein (Coxiella burnetii); assay: SpyTag/SpyCatcher conjugation, SDS-PAGE

B1: CpG-ST-E2 nanoparticle (ST-E2 with CpG 1826 conjugated in the internal cavity) (other)
chain: MAHIVMVDAYKPTKGSGTAGGGSGSLSVPGPAAAEEKAAPAAAKPATTEGEFPETREKMSGIRRAIAKAMVHSKHTAPHVTLMDEADVTKLVAHRKKFKAIAAEKGIKLTFLPYVVKALVSALREYPVLNTSIDDETEEIIQKHYYNIGIAADTDRGLLVPVIKHADRKPIFALAQEINELAEKARDGKLTPGEMKGASCTITNIGSAGGQWFTPVINHPEVAILGIGRIAEKPIVRCGEIVAAPMLALSLSFDHRMIDGATAQKALNHIKRLLSDPELLLMEA
[1]
  binding result: binds
[2]
  binding result: binds
